Target: T1, TRIM21-His protein (UniProt P19474 1-475)
T1 construct: TRIM21-His protein, Sino Biological 18010-H07B; also called recombinant TRIM21; source: bought: Sino Biological (18010-H07B)
Test: pull-down; TRIM21-His incubated with GST-ID1 or GST at a 3:1 molar ratio in lysis buffer; captured with anti-GST antibody at 4 °C overnight, then Protein A/G beads 4 h; immunoblot
Conditions: both partners purified

B1: GST-ID1 (natural protein, UniProt P41134 1-155, looked up)
chain: MKVASGSTATAAAGPSCALKAGKTASGAGEVVRCLSEQSVAISRCAGGAGARLPALLDEQQVNVLLYDMNGCYSRLKELVPTLPQNRKVSKVEILQHVIDYIRDLQLELNSESEVGTPGGRGLPVRAPLSTLNGEISALTAEAACVPADDRILCR
notes: also called recombinant ID1; source: cloned into pGEX-6p-2 with a GST tag and purified
B1: binds.
